Data published in PMC4433226.

Tests used:
Ku70/Ku80 wild type [1] = biological target: T1, Ku70/Ku80 wild type (UniProt P12956;P13010 1-609;1-732); assay: EMSA; primarily 1:1 Ku:DNA; ELISA: 20 mM HEPES pH 7.5, 75 mM KCl, 10% glycerol, 0.005% Triton X-100, 2 mM DTT, room temperature, 1 h, 2 pmol DNA, 424 ng DNA-PKcs; EMSA: 20 ul, 500 fmol DNA, buffer as in earlier papers; settings: protein: recombinant; tags: His (Ku70); copies: 1;1; blunt
Ku70/Ku80 wild type [2] = biological target: T1, Ku70/Ku80 wild type; assay: EMSA; 1 and 2 Ku per DNA, preference for 2; ELISA: 20 mM HEPES pH 7.5, 75 mM KCl, 10% glycerol, 0.005% Triton X-100, 2 mM DTT, room temperature, 1 h, 2 pmol DNA, 424 ng DNA-PKcs; EMSA: 20 ul, 500 fmol DNA, buffer as in earlier papers; settings: protein: recombinant; tags: His (Ku70); copies: 1;1; blunt
[3] = biological target: T2, Ku70/Ku80 wild type;DNA-PKcs (human?;human (HeLa cells), UniProt P12956;P13010;P78527 1-609;1-732;1-4128, |); assay: ELISA; ELISA: 20 mM HEPES pH 7.5, 75 mM KCl, 10% glycerol, 0.005% Triton X-100, 2 mM DTT, room temperature, 1 h, 2 pmol DNA, 424 ng DNA-PKcs; EMSA: 20 ul, 500 fmol DNA, buffer as in earlier papers; settings: protein: recombinant;native; tags: His (Ku70);; copies: 1;1;1; label: 5' biotin on one end; blunt
[4] = biological target: T2, Ku70/Ku80 wild type;DNA-PKcs; assay: ELISA; more than double the 30bp and 400bp recruitment (Fig 4C); ELISA: 20 mM HEPES pH 7.5, 75 mM KCl, 10% glycerol, 0.005% Triton X-100, 2 mM DTT, room temperature, 1 h, 2 pmol DNA, 424 ng DNA-PKcs; EMSA: 20 ul, 500 fmol DNA, buffer as in earlier papers; settings: protein: recombinant;native; tags: His (Ku70);; copies: 1;1;1; label: 5' biotin on one end; blunt

T1 sequence (P12956 whole entry, chain 1 of 2): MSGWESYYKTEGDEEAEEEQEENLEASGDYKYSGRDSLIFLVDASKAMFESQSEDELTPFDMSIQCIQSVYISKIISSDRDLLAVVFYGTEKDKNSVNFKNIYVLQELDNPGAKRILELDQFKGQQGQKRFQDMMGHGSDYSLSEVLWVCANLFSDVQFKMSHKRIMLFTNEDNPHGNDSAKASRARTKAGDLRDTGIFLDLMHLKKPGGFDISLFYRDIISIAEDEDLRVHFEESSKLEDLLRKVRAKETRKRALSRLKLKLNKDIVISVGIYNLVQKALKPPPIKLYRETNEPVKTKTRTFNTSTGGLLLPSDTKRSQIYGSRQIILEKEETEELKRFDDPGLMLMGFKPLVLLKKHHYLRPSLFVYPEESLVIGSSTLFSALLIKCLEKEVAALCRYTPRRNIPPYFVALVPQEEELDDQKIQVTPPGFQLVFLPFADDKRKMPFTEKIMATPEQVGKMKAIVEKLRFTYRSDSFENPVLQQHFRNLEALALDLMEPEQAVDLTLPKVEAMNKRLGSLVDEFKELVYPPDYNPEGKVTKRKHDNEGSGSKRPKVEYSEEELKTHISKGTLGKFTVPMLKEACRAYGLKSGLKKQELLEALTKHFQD
T1 sequence (P13010 whole entry, chain 2 of 2): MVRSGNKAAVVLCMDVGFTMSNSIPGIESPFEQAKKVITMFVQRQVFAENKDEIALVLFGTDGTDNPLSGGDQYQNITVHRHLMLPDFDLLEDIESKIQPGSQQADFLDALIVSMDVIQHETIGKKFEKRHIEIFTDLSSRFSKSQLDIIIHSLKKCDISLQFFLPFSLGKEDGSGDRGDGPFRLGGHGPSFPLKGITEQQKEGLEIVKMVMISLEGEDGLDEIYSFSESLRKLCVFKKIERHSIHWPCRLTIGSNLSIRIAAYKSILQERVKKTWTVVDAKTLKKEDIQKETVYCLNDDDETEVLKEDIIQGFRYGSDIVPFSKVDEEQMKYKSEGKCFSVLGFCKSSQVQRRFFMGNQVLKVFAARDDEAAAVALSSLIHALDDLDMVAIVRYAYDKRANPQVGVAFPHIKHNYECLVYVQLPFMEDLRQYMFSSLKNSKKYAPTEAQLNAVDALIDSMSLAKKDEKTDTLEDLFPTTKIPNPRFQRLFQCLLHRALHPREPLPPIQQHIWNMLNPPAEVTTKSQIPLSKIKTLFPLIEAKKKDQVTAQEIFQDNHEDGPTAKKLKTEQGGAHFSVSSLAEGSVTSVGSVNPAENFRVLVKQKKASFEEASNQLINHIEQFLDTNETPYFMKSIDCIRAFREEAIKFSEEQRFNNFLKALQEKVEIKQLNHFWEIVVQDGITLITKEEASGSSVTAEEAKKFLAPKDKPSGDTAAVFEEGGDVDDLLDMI

B1: 30bp blunt (EMSA) (dsDNA)
DNA 1: CACTTCCAACAGAGGTGACACTGCCTTCAG
DNA 2: CTGAAGGCAGTGTCACCTCTGTTGGAAGTG
B1: binds (Ku70/Ku80 wild type [1]).

B2: 60bp blunt (EMSA) (dsDNA)
DNA 1: CTTGACCAGTAGTCTAGCACGTGACGATTGCATGCGTCAAGTAAGATGCAGATACTTAAC
DNA 2: GTTAAGTATCTGCATCTTACTTGACGCATGCAATCGTCACGTGCTAGACTACTGGTCAAG
B2: binds (Ku70/Ku80 wild type [2]).

B3: 30bp blunt, biotinylated (dsDNA)
DNA 1: B1 DNA 1
DNA 2: B1 DNA 2
B3 was tested, and the binding signal [3] was > 4 fold vs DNA-PKcs without Ku.

B4: 60bp blunt, biotinylated (dsDNA)
DNA 1: B2 DNA 1
DNA 2: B2 DNA 2
For B4, the binding signal [4] was > 4 fold vs DNA-PKcs without Ku.
